Data from US20090053212A1 (Astellas, published 2009).
Residue numbers refer to the chain shown, from its start. Blank lines part the entries; values can stand above or below the binder they belong to. Where no end group is shown, it is not given here.

Legend:
[1] = biological target: T1, hOPN5-BSA conjugate (human osteopontin peptide CVDTYDGRGDSVVYGLRS coupled to BSA) (human, also: coupled to maleimide-activated BSA (Sulfo-EMCS), site not given here); assay: ELISA, HRP-labeled anti-E-Tag antibody detection
T1 construct: Immobilized on the ELISA plate at 200 ng/100 uL/well as a BSA conjugate; also called hOPN5 peptide
T1 peptide: CVDTYDGRGDSVVYGLRS
Protocol: (§1) The peptide having the above-described sequence (hereinafter also referred to as the hOPN5 peptide) was reacted with BSA incorporating a maleimide group introduced using Sulfo-EMCS (Dojindo Laboratories) to prepare a hOPN5-BSA conjugate. The hOPN5-BSA conjugate was immobilized at 200 ng/100 μL/well on an ELISA plate (Nunc Company) at 4° C. overnight, and the plate was washed, after which blocking was performed with PBS supplemented with 1% BSA at 4° C. overnight. An antibody sample diluted with PBS supplemented with 1% BSA was added to the plate at 100 μL/well, and they were reacted at 37° C. for 1 hour. Detection was performed using a peroxidase (HRP)-labeled anti-human IgG (H+L) antibody (Wako Pure Chemical Industries, Ltd.). Absorbance at a wavelength of 450 nm was measured using a microplate reader (Molecular Devices Company).
(§2) The binding activity of the purified R2K1v1.7-scFv to the hOPN5 peptide was measured by an ELISA method. The method was generally the same as described above; in this measurement, HRP-labeled anti-E-Tag antibody was used as the labeled antibody.

BSA = biological target: T2, BSA (UniProt P02769 25-607); assay: ELISA, detection with HRP-labeled anti-E-Tag antibody
T2 construct: also called negative control BSA
T2 sequence (P02769 25-607 limits assumed): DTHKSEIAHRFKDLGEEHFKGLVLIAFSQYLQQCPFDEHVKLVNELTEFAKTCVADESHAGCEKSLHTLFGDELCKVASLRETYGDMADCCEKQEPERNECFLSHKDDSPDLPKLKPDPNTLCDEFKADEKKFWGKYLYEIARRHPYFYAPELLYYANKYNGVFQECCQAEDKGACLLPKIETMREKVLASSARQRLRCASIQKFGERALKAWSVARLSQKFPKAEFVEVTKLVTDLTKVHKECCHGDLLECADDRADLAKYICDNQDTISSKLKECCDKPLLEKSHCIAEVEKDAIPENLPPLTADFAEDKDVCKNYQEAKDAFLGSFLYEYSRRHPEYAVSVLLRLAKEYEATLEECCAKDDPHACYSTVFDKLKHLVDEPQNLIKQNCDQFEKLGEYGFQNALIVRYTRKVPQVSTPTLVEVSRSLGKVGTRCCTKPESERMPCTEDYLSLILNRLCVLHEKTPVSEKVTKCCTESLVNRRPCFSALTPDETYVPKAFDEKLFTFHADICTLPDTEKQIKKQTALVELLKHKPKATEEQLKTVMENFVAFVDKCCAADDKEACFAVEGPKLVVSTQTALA
Protocol: as §1, §2

[2] = biological target: thrombin-cleaved human osteopontin (human), P10451; assay: cell-based or functional assay
thrombin-cleaved human osteopontin (human), P10451, sequence (P10451 17-314): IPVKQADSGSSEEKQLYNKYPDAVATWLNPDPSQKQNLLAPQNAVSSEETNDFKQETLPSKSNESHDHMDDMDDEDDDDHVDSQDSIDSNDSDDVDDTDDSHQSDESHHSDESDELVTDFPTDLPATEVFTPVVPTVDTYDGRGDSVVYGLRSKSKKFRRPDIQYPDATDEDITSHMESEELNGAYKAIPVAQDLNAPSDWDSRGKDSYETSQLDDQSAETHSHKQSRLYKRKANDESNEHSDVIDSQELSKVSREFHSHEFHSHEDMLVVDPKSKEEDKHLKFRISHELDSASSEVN

[3] = biological target: T1, hOPN5-BSA conjugate (human osteopontin …); assay: ELISA, hOPN5-BSA conjugate on the plate, HRP-labeled anti-human IgG (H+L) detection
Protocol: as §1

biotinized hOPN5 peptide = biological target: T3, biotinized hOPN5 peptide (human, also: biotinylated, site not given here); assay: surface plasmon resonance (BIAcore), biotinized hOPN5 peptide on Sensor Chip SA, F(ab')2-PEG at 5 ug/mL
T3 peptide: CVDTYDGRGDSVVYGLRS
Protocol: The binding activity of the purified F(ab′)₂—PEG of R2K1v1.7 to the hOPN5 peptide was confirmed using surface plasmon resonance assay. The biotinized hOPN5 peptide was immobilized on Sensor Chip SA (BIAcore Company), and its binding activity was confirmed using the F(ab′)₂—PEG, previously diluted to 5 μg/mL with HBS-EP buffer (BIAcore Company); the results are shown in FIG. 16. From a rise in the signal, this F(ab′)₂—PEG was confirmed as having the same binding activity to the hOPN5 peptide as that of R2K1v1.7.

[4] = biological target: human OPN peptide (SVVYGLR sequence of human OPN) (human); assay: method not stated

Mean cell count (migration of TNF-alpha-activated human peripheral blood monocytes, 48-well microchemotaxis chamber; antibody 50 ug/mL) [2]: 688 cells/mm^3
binding result [3]: binds
B2: R2K1v1.8 antibody (antibody, V domains shown)
VH: QVQLVQSGAELVRPGSSVKVSCKASGYTFTDYEMHWVKQTPVHGLEWIGAIHPGRGGTAYNQKFKGKATLTADKSTSTAYMELSSLTSEDTAVYYCTRITGYFDVWGQGTTVTVSS
VL: DVVMTQSPLSLPVTLGQPASISCRSSQSIVHSNGNTYLEWYLQKPGQSPQLLIYKVSNRFSGVPDRFSGSGSGTDFTLKISRVEAEDVGVYYCFQGSHVPLTFGQGTKLEIKR
notes: Only entries with a leader are tied to VH1.8 and VL1.8; also called humanized 2K1 antibody; R2K1 antibody

binding result (biotinized hOPN5 peptide): binds
B3: polyethylene glycol modified F(ab')2 of the R2K1v1.7 antibody (other, not shown: small tags and cut ends)
heavy: B2 VH with V5Q, L11V, V12K, R13K, S16A, S25L
light: DVVMTQSPLSLSVTLGQPASISCRSSQSIVHSNGNTYLEWYLQKPGQSPQLLIYKVSNRFSGVPDRFSGSGSGTDFTLKISRVEAEDVGVYYCFQGSHVPLTFGQGTKLEIKRTVAAPSVFIFPPSDEQLKSGTASVVCLLNNFYPREAKVQWKVDNALQSGNSQESVTEQDSKDSTYSLSSTLTLSKADYEKHKVYACEVTHQGLSSPVTKSFNRGEC
modifications: maleimidated polyethylene glycol SUNBRIGHT ME-120MA coupled to thiol groups activated by DTT reduction
notes: Made by pepsin digestion of R2K1v1.7, reduction of F(ab')2 to Fab' with DTT and coupling with maleimide-PEG; also called F(ab')2-PEG; F(ab')2-PEG of R2K1v1.7

Second part, the binder before the results:

B1: R2K1v1.7-scFv (scFv)
scFv: QVQLQQSGAEVKKPGASVKVSCKALGYTFTDYEMHWVKQTPVHGLEWIGAIHPGRGGTAYNQKFKGKATLTADKSTSTAYMELSSLTSEDTAVYYCTRITGYFDVWGQGTTVTVSSGGGGSGGGGSGGGGSDVVMTQSPLSLSVTLGQPASISCRSSQSIVHSNGNTYLEWYLQKPGQSPQLLIYKVSNRFSGVPDRFSGSGSGTDFTLKISRVEAEDVGVYYCFQGSHVPLTFGQGTKLEIKR
notes: Structure VH1.7-linker-VL1.7, expressed in E. coli HB2151 periplasm, nearly all monomeric by gel filtration; also called scFv of R2K1v1.7; purified R2K1v1.7-scFv; not shown: C-terminal E-Tag from the pCANTAB5E vector, and any joining residues from the NotI site
binding result [1]: binds
binding result (BSA): no binding

B4: R2K1v1.7 antibody (antibody, human IgG1, kappa, V domains shown)
VH: B2 VH with V5Q, L11V, V12K, R13K, S16A, S25L
VL: B2 VL with P12S
fold binding affinity against the corresponding monkey OPN peptide [4]: > 100 times
